What was measured:
elastase = test: Elastase inhibition assay (fibroblast lysate, STANA substrate); format: biochemical, human
Protocol: The RSPP test materials were also tested to determine their effect(s) on elastase activity. In these experiments, human dermal fibroblasts were used as a source of the elastase enzyme. This enzyme was partially purified from the fibroblasts by lysing the cells in an elastase buffer and retaining the soluble portion of the lysate. Portions of this fibroblast lysate were then incubated with test materials and a synthetic elastase substrate, Suc-(Ala3)-p-Nitroaniline (STANA). Elastase acts upon this substrate to release p-nitroaniline, which can be detected spectrophotometrically by measuring the absorbance at a wavelength of 405 nm. An inhibition of the elastase enzyme is noted by a decrease in the amount of released p-nitroaniline when compared to uninhibited enzyme.
Cells were expanded and passed until a sufficient number of cells had been grown (not exceeding 10 passages). When a sufficient number of cells had been grown, the fibroblast lysate containing the elastase enzyme was prepared as follows:
The fibroblasts were washed twice with 15 ml of phosphate buffered saline with each wash removed via aspiration. Ice cold PBS (7.5 ml) was then added to the flask and the cells were detached with a cell scraper. The detached cells/PBS was transferred to a 15 ml centrifuge tube on ice. The flask was rinsed again with 7.5 ml of PBS, which was also transferred to the 15 ml tube. […] The protein concentration of the fibroblast lysate was determined using the Pierce BCA Protein Assay kit (see below for details) and the fibroblast lysate was stored at −75° C. until used (for up to 1 year).
Upon determining the protein concentration of the lysate, a small sample was obtained and the elastase activity of the lysate was determined at 1×, 0.5× and 0.25× concentrations. The activity was determined for each of the different concentrations in exactly the same way that the uninhibited sample was treated in the elastase assay (see below). […] After 1.25 hours, the well plate was removed and read in a 96-well plate reader at 405 nm. The mean absorbances were plotted versus concentration. […]

[1] = tested on: Fibroblasts (HDFn Cell Line)
Protocol: Initial screening was conducted to identify a test range suitable to determine the effect of a broad range of test material concentrations on cell viability. […] Cultured fibroblasts were exposed to the test materials for 48 hours and then changes in cell viability were determined using an MTT assay (i.e., a colorimetric analysis of the metabolic activity of the cultured cells, described in greater detail below).
The purple crystals are extracted from the cells with isopropanol and the amount of crystal formation quantified spectrophotometrically. […] A decrease in color intensity can be a sign of toxicity.
Fibroblasts (Cascade Biologics, HDFn Cell Line, lot#1C0914) were seeded into the individual wells of either a 96-well plate (for the initial pilot work to determine concentration effects on cell viability) in 100 μl of Fibroblast Growth Media (FGM) or in 12-well plates (for the measurement of collagen, elastin and MMP-1) in 1.0 ml of FGM and incubated overnight at 37±2° C. and 5±1% CO2. On the following day, the medium was removed via aspiration to eliminate any non-adherent cells and replaced with fresh FGM. The cells were grown until confluent, with a media change every 48 to 72 hours. Upon reaching confluency, the cells were treated for 24 hours with Dulbecco's Modified Essential Media (DMEM) supplemented with 1.5% FBS to wash out any effects from the growth factors included in the normal FGM. After this 24-hour wash out period, the cells were treated with the test materials at the specified concentrations dissolved in DMEM with 1.5% FBS. Untreated cells (negative controls) received DMEM with 1.5% FBS. The cells were incubated for 48 hours and at the end of the incubation period cell culture medium was either discarded (pilot work) or collected and stored frozen at −75° C. The test materials were tested in triplicate.
After the 2-day incubation, the cell culture medium was removed and the fibroblasts were washed twice with PBS to remove any remaining test material. After the final wash, either 100 μl (96-well plates) or 300 μl (12-well plates) of DMEM supplemented with 0.5 mg/ml MTT were added to each well and the cells were incubated for 1 hour at 37±2° C. and 5±1% CO2. After the incubation, the DMEM/MTT solution was removed and the cells were washed again once with PBS and then either 100 μl (96-well plates) or 1 ml (12-well plates) of isopropyl alcohol were added to each well to extract the purple formazin crystals. For the 12-well plates, two hundred microliters of the isopropyl extracts was transferred to a 96-well plate. The 96-well plates were read at 540 nm using isopropyl alcohol as a blank. The mean MTT absorbance value for the negative control cells was calculated and used to represent 100% value for cell viability. The individual MTT values from the cells undergoing the various treatments were then divided by the mean value for the negative control cells and expressed as a percent, to determine the change in cell viability caused by each treatment.

- Percent Inhibition (elastase; 0.1%): −13%
- Percent Inhibition (elastase; 0.5%): −20%
- Percent Inhibition (elastase; 1%): −5%
B1: GC2596-26-E: collagen-like repeat sequence protein polymer, head-[(GAHGPAGPK)2(GAQGPAGPG)24(GAHGPAGPK)2]4-tail; SEQ ID NO:34 (Example 5) (protein)
chain: MDPVVLQRRDWENPGVTQLNRLAAHPPFASDPMGAHGPAGPKGAHGPAGPKGAQGPAGPGGAQGPAGPGGAQGPAGPGGAQGPAGPGGAQGPAGPGGAQGPAGPGGAQGPAGPGGAQGPAGPGGAQGPAGPGGAQGPAGPGGAQGPAGPGGAQGPAGPGGAQGPAGPGGAQGPAGPGGAQGPAGPGGAQGPAGPGGAQGPAGPGGAQGPAGPGGAQGPAGPGGAQGPAGPGGAQGPAGPGGAQGPAGPGGAQGPAGPGGAQGPAGPGGAHGPAGPKGAHGPAGPKGAHGPAGPKGAHGPAGPKGAQGPAGPGGAQGPAGPGGAQGPAGPGGAQGPAGPGGAQGPAGPGGAQGPAGPGGAQGPAGPGGAQGPAGPGGAQGPAGPGGAQGPAGPGGAQGPAGPGGAQGPAGPGGAQGPAGPGGAQGPAGPGGAQGPAGPGGAQGPAGPGGAQGPAGPGGAQGPAGPGGAQGPAGPGGAQGPAGPGGAQGPAGPGGAQGPAGPGGAQGPAGPGGAQGPAGPGGAHGPAGPKGAHGPAGPKGAHGPAGPKGAHGPAGPKGAQGPAGPGGAQGPAGPGGAQGPAGPGGAQGPAGPGGAQGPAGPGGAQGPAGPGGAQGPAGPGGAQGPAGPGGAQGPAGPGGAQGPAGPGGAQGPAGPGGAQGPAGPGGAQGPAGPGGAQGPAGPGGAQGPAGPGGAQGPAGPGGAQGPAGPGGAQGPAGPGGAQGPAGPGGAQGPAGPGGAQGPAGPGGAQGPAGPGGAQGPAGPGGAQGPAGPGGAHGPAGPKGAHGPAGPKGAHGPAGPKGAHGPAGPKGAQGPAGPGGAQGPAGPGGAQGPAGPGGAQGPAGPGGAQGPAGPGGAQGPAGPGGAQGPAGPGGAQGPAGPGGAQGPAGPGGAQGPAGPGGAQGPAGPGGAQGPAGPGGAQGPAGPGGAQGPAGPGGAQGPAGPGGAQGPAGPGGAQGPAGPGGAQGPAGPGGAQGPAGPGGAQGPAGPGGAQGPAGPGGAQGPAGPGGAQGPAGPGGAQGPAGPGGAHGPAGPKGAHGPAGPKMDPGRYQLSAGRYHYQLVWCQK
modifications: silk-elastin repeat sequence protein copolymer
- concentrations with adverse effects on cell viability [1]: ≥ 0.07%
